Molecular target: T1, STEAP1 (UniProt Q9UHE8 1-339, limits assumed)
T1 construct: whole, on cells; also called Six-Transmembrane Epithelial Antigen of the Prostate 1
Test: cell binding (MFI) on LOX-IMVI cells expressing STEAP1
Excerpt: STEAP1 x CD28 bsAbs were engineered in 2+1 formats (mAb-scFv or Fab₂-scFv-Fc) to investigate the effects of bivalent binding to STEAP1 antigen compared with monovalent binding of a STEAP1 x CD28 bsAb in the 1+1 Fab-scFv format. LOX-IMVI cells (which express both STEAP1 at—8000 antigens/cell as well as an aCD3-scFv in order to provide Signal 1) were mixed with purified T cells at a 1:1 E:T ratio. As depicted in FIG. 36, XENP47235 in the […] format reaches a higher level of binding as measured by the MFI, indicating a higher antigen binding capacity and potentially higher efficacy. […] Each format may be advantageous in different contexts.

binding result: binds
B1: XENP47241 (bispecific antibody)
heavy 1: QVQVQESGPGLVKPSQTLSLTCTVSGYSITSDYSWNWIRQPPGKKLEWIGYIGTSGSTVYNPSLKSRVTISRDTSKNQFSLKLSSVTAADTAVYYCARERNYDYELYYYAMDYWGQGTLVTVSSASTKGPSVFPLAPSSKSTSGGTAALGCLVKDYFPEPVTVSWNSGALTSGVHTFPAVLQSSGLYSLSSVVTVPSSSLGTQTYICNVNHKPSDTKVDKKVEPKSCDKTHTCPPCPAPPVAGPSVFLFPPKPKDTLMISRTPEVTCVVVDVKHEDPEVKFNWYVDGVEVHNAKTKPREEEYNSTYRVVSVLTVLHQDWLNGKEYKCKVSNKALPAPIEKTISKAKGQPREPQVYTLPPSREEMTKNQVSLTCDVSGFYPSDIAVEWESDGQPENNYKTTPPVLDSDGSFFLYSKLTVDKSRWEQGDVFSCSVLHEALHSHYTQKSLSLSPGK
heavy 2: not shown
light 1: not shown
light 2: not shown
notes: also called STEAP1 x CD28 bsAb in the 2+1 mAb-scFv format
